Columns and labels:
P. putida strain FJPO3 = assay: Growth and mcl-PHA production of strain FJPO3 on levoglucosan; assay type: cell-based, Pseudomonas putida
Description: The levoglucosan kinase (lgk) gene from Lipomyces starkeyi was codon optimized using Gene Designer software from DNA 2.0 and synthesized as a gBlock (SEQ ID NO:1). This fragment was cloned into plasmid pMFL76, which is derived from the commercial PCR-Blunt II Topo vector (ThermoFisher), with the addition of two 1-kb genomic regions located in proximity of the rpoS region of the genome from Pseudomonas putida KT2440 to enable homologous recombination mediated genomic integration into strain KT2440. The Ptac-lgk was inserted in between these 1 kb homology regions and transformed into KT2440. A single kanamycin-resistant transformant was isolated and growth in M9 levoglucosan was confirmed, to generate strain FJPO3.
P. putida produces medium chain-length polyhydroxy-alkanoates (mcl-PHAs), which are high-value polymers that can serve as plastics, adhesive precursors, and as precursors to chemical building blocks or hydrocarbons. As mcl-PHAs represent a potential target to generate from pyrolytic sugars, the generation of mcl-PHAs by P. putida using levoglucosan as its sole carbon source as investigated.
Most growths were in a modified formulation of M9 minimal salts. Briefly, 6.78 g Na2PO4 (anhydrous), 3 g KH2PO4, and 0.5 g NaCl were dissolved in 750 mL deionized H2O. The pH was adjusted to 7.4 with 10 N NaOH and brought to 900 mL with H2O. The solution was autoclaved for 15 minutes at 121° C. and allowed to cool. […]
Growth curves were generated using a Bioscreen C automated microbiology growth curve analysis system from Growth Curves USA. […] Spectrophotometric blanks were subtracted from the measured values and each growth curve represents the average of three independent cultures. The maximum specific growth rate (μmax) was calculated as the maximum slope of the log phase of the growth curve over any given 4 hour period during the course of the experiment. […]
One mL of saturated cultures was centrifuged at 5,000×g for 5 minutes. […] Nile Red fluorescence was detected between 560 and 590 nm using band-pass filtering.

[1] = β-Glucosidase mediated cleavage of cellobiosan (HPLC); assay type: biochemical; conditions: cellobiosan 2 mg/mL, 2.5 to 20 μg of enzyme (four enzyme loadings), 40° C., 90 minutes, FIG. 5
Procedure: (§1) Following the β-glucosidase reaction period, the tubes were placed on ice, filtered through a 0.2 μm filter and analyzed via High-Performance Liquid Chromatography (HPLC; Agilent 1100 series system (Agilent USA, Santa Clara, Calif.)) using a Shodex SP0810 carbohydrate column with de-ashing guard cartridges (BioRad Laboratories, Hercules, Calif.) run at 85° C. with ultra-pure water as the isocratic mobile phase at a flow rate of 0.6 mL/min. A refractive index detector was used for compound detection. By-products were identified by co-elution at the same retention time with pure compounds. Standard curves for substrate (cellobiosan) and products (glucose and levoglucosan) were also generated in order to quantify results. Additionally, enzymes were analyzed via HPLC in buffer alone (without cellobiosan) to ensure no carry-over products inherent to the enzyme preparations.
Each reaction was set up in 1.5 mL microcentrifuge tubes using cellobiosan at a concentration of 2 mg/mL in the following buffers: 50 mM sodium maleate, pH 6.5 (T. maritima and Agrobacterium sp.), and 100 mM sodium acetate, pH 5.0 (P. chrysosporium and A. niger). For each reaction, 2.5 to 20 μg of enzyme was loaded and the total reaction volume was 400 μL. An additional enzyme-free reaction was run simultaneously to ensure cellobiosan cleavage was enzyme-dependent. Reactions were incubated at 40° C. using a dry-block for 90 minutes. In a separate reaction evaluating the substrate concentration, 0.125 μM of purified A. niger β-glucosidase was incubated at 40° C. in a 96-well microtiter plate with 0, 0.5, 1, 2, 4, 8, 16 or 32 mM cellobiose or cellobiosan. Reactions were initiated by the addition of enzyme and quenched by boiling in a thin walled PCR tube at 0.5, 1, 5 and 10 minutes.
as §1, with “the” for “the β-glucosidase”, “periods,” for “period,”, “Agilent1100” for “Agilent 1100”, “ml min^−1.” for “mL/min.”, “(without the addition of” for “(without”

[2] = system: P. putida strains FJPO3 and KT2440; assay: Growth of P. putida strains on cellobiose or cellobiosan with addition of abg β-glucosidase; assay type: cell-based, Pseudomonas putida
Procedure: Most growths were in a modified formulation of M9 minimal salts. Briefly, 6.78 g Na2PO4 (anhydrous), 3 g KH2PO4, and 0.5 g NaCl were dissolved in 750 mL deionized H2O. The pH was adjusted to 7.4 with 10 N NaOH and brought to 900 mL with H2O. The solution was autoclaved for 15 minutes at 121° C. and allowed to cool. One hundred μL of 1 M CaCl2 (100 μM final) and 2 mL of 1 M MgSO4-7H2O (2 mM Final), 1 mL of 100 mM FeSO4, (100 μM final) and 10 mL 1 M (NH4)2SO4 (10 mM final) was added. In the case of FIG. 2, 1 mM (NH4)2SO4, was used to induce mcl-PHA production.
Growth curves were generated using a Bioscreen C automated microbiology growth curve analysis system from Growth Curves USA. Overnight cultures were diluted to 0.02 OD in a total volume of 300 μL per well. Incubations were performed at 30° C. with continuous shaking and turbidity measurements (OD420-580) were collected every 15 minutes for the duration of the experiments. Spectrophotometric blanks were subtracted from the measured values and each growth curve represents the average of three independent cultures. The maximum specific growth rate (μmax) was calculated as the maximum slope of the log phase of the growth curve over any given 4 hour period during the course of the experiment. […]

With O[C@@H]1[C@@H](O)[C@@H]2OC[C@@H](O2)[C@H]1O [levoglucosan] the “growth profile of FJPO3 compared with glucose” value (P. putida strain FJPO3; M9 medium, 7.5 g/L levoglucosan vs 7.5 g/L glucose, FIG. 2 Panel A) was “similar”, the “concentration at which FJPO3 has the capacity to grow” value (P. putida strain FJPO3; M9 medium, FIG. 2 Panel B) was ≤ 60 g/L and the “mcl-PHA production by FJPO3 (Nile Red fluorescence)” value (P. putida strain FJPO3; N-limited medium [M9 1mM (NH4)2SO4], levoglucosan as sole carbon source, FIG. 2 Panel C) was “produces mcl-PHAs”.

In the case of “bgl1A: P. chrysosporium β-glucosidase, GH3, GenBank AAC26489, SEQ ID NO: 4”, the “cleavage of cellobiosan to generate glucose and levoglucosan” value (“cleavage of cellobiosan” for short) [1] is reported as “able to cleave cellobiosan”.

B1: abg: Agrobacterium sp. β-glucosidase, GH1, GenBank AAA22085.1, SEQ ID NO: 6 (protein, listed as Agrobacterium sp.)
chain: MTDPNTLAARFPGDFLFGVATASFQIEGSTKADGRKPSIWDAFCNMPGHVFGRHNGDIACDHYNRWEEDLDLIKEMGVEAYRFSLAWPRIIPDGFGPINEKGLDFYDRLVDGCKARGIKTYATLYHWDLPLTLMGDGGWASRSTAHAFQRYAKTVMARLGDRLDAVATFNEPWCAVWLSHLYGVHAPGERNMEAALAAMHHINLAHGFGVEASRHVAPKVPVGLVLNAHSAIPASDGEADLKAAERAFQFHNGAFFDPVFKGEYPAEMMEALGDRMPVVEAEDLGIISQKLDWWGLNYYTPMRVADDATPGVEFPATMPAPAVSDVKTDIGWEVYAPALHTLVETLYERYDLPECYITENGACYNMGVENGQVNDQPRLDYYAEHLGIVADLIRDGYPMRGYFAWSLMDNFEWAEGYRMRFGLVHVDYQTQVRTVKNSGKWYSALASGFPKGNHGVAKG
In the case of B1, the “growth of FJPO3 and KT2440 in M9 medium containing cellobiosan plus abg” value ([2]; cellobiosan, twenty micrograms of enzyme, 30° C., FIG. 6) is reported as “both FJPO3 and KT2440 are capable of utilizing the glucose component of cellobiosan”, the “growth profiles of KT2440 and FJPO3 in M9 medium containing cellobiose with addition of abg” value ([2]; cellobiose, FIG. 6 Panel A) is reported as “virtually indistinguishable” and the “cleavage of cellobiosan” value [1] is reported as “able to cleave cellobiosan”.

B2: bgl1: A. niger β-glucosidase, GH3, GenBank AJ132386, SEQ ID NO: 3 (protein)
chain: MRFTLIEAVALTAVSLASADELAYSPPYYPSPWANGQGDWAQAYQRAVDIVSQMTLDEKVNLTTGTGWELELCVGQTGGVPRLGVPGMCLQDSPLGVRDSDYNSAFPAGMNVAATWDKNLAYLRGKAMGQEFSDKGADIQLGPAAGPLGRSPDGGRNWEGFSPDPALSGVLFAETIKGIQDAGVVATAKHYIAYEQEHFRQAPEAQGFGFNISESGSANLDDKTMHELYLWPFADAIRAGAGAVMCSYNQINNSYGCQNSYTLNKLLKAELGFQGFVMSDWAAHHAGVSGALAGLDMSMPGDVDYDSGTSYWGTNLTISVLNGTVPQWRVDDMAVRIMAAYYKVGRDRLWTPPNFSSWTRDEYGYKYYYVSEGPYEKVNQYVNVQRNHSELIRRIGADSTVLLKNDGALPLTGKERLVALIGEDAGSNPYGANGCSDRGCDNGTLAMGWGSGTANFPYLVTPEQAISNEVLKHKNGVFTATDNWAIDQIEALAKTASVSLVFVNADSGEGYINVDGNLGDRRNLTLWRNGDNVIKAAASNCNNTIVVIHSVGPVLVNEWYDNPNVTAILWGGLPGQESGNSLADVLYGRVNPGAKSPFTWGKTREAYQDYLVTEPNNGNGAPQEDFVEGVFIDYRGFDKRNETPIYEFGYGLSYTTFNYSNLEVQVLSAPAYEPASGETEAAPTFGEVGNASDYLYPSGLQRITKFIYPWLNGTDLEASSGDASYGQDSSDYLPEGATDGSAQPILPAGGGPGGNPRLYDELIRVSVTIKNTGKVAGDEVPQLYVSLGGPNEPKIVLRQFERITLQPSEETKWSTTLTRRDLANWNVEKQDWEITSYPKMVFVGSSSRKLPLRASLPTVH
modifications: Aspergillus niger
For B2, the “cleavage of cellobiosan” value [1] was “able to cleave cellobiosan”.

B3: bglA: T. maritima β-glucosidase, GH1, GenBank CAA52276.1, SEQ ID NO: 5 (protein, listed as Thermotoga maritima)
chain: MNVKKFPEGFLWGVATASYQIEGSPLADGAGMSIWHTFSHTPGNVKNGDTGDVACDHYNRWKEDIEIIEKLGVKAYRFSISWPRILPEGTGRVNQKGLDFYNRIIDTLLEKGITPFVTIYHWDLPFALQLKGGWANREIADWFAEYSRVLFENFGDRVKNWITLNEPWVVAIVGHLYGVHAPGMRDIYVAFRAVHNLLRAHARAVKVFRETVKDGKIGIVFNNGYFEPASEKEEDIRAVRFMHQFNNYPLFLNPIYRGDYPELVLEFAREYLPENYKDDMSEIQEKIDFVGLNYYSGHLVKFDPDAPAKVSFVERDLPKTAMGWEIVPEGIYWILKKVKEEYNPPEVYITENGAAFDDVVSEDGRVHDQNRIDYLKAHIGQAWKAIQEGVPLKGYFVWSLLDNFEWAEGYSKRFGIVYVDYSTQKRIVKDSGYWYSNVVKNNGLED
In the case of B3, the “cleavage of cellobiosan” value [1] is reported as “able to cleave cellobiosan”.
